Data taken from publication PMC11259757.
Where two headings read alike, the source gives them in different places. One block for each substance: values may come before it.

Legend:
[1] = target: 3f8 IgG with Fc variant 3a-1, displayed on CHO cells (human); assay: flow cytometry on cells
[2] = target: 3f8 IgG with Fc variant 3a-10, displayed on CHO cells (human); assay: flow cytometry on cells
[3] = target: 3f8 IgG with Fc variant 3a-14, displayed on CHO cells (human); assay: flow cytometry on cells
[4] = target: 3f8 IgG with Fc variant 3a-2, displayed on CHO cells (human); assay: flow cytometry on cells
[5] = target: 3f8 IgG with Fc variant 3a-3, displayed on CHO cells (human); assay: flow cytometry on cells
[6] = target: 3f8 IgG with Fc variant 3a-4, displayed on CHO cells (human); assay: flow cytometry on cells
[7] = target: 3f8 IgG with Fc variant 3a-5, displayed on CHO cells (human); assay: flow cytometry on cells
[8] = target: 3f8 IgG with Fc variant 3a-7, displayed on CHO cells (human); assay: flow cytometry on cells
[9] = target: 3f8 IgG with Fc variant 3a-8, displayed on CHO cells (human); assay: flow cytometry on cells
[10] = target: 3f8 IgG with Fc variant 3a-9, displayed on CHO cells (human); assay: flow cytometry on cells
[11] = target: 3f8 IgG with Fc variant LPL, displayed on CHO cells (human); assay: flow cytometry on cells
[12] = target: 3f8 IgG with Fc variant 3a-11, displayed on CHO cells (human); assay: flow cytometry on cells
[13] = target: 3f8 IgG with Fc variant V12, displayed on CHO cells (human); assay: flow cytometry on cells
[14] = target: FcγRIIIa-176F extracellular domain, biotinylated (human) (UniProt P08637); assay: BLI
[15] = target: FcγRIIIa-176V extracellular domain, biotinylated (human) (UniProt P08637); assay: BLI
[16] = target: FcγRIIa-131H extracellular domain, biotinylated (human) (UniProt P12318); assay: BLI
[17] = target: FcγRIIa-131R extracellular domain, biotinylated (human); assay: BLI
FcγRIIa-131R extracellular domain, biotinylated (human), sequence (P12318 34-217): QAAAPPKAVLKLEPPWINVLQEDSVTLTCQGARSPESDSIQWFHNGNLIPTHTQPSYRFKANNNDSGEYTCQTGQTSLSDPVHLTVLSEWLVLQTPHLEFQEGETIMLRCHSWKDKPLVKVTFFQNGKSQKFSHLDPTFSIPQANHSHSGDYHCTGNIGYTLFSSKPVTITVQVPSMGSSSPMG

[18] = target: FcγRIIb extracellular domain, biotinylated (human) (UniProt P31994); assay: BLI
[19] = target: FcγRIIIa-176F extracellular domain, biotinylated (human) (UniProt P08637); assay: BLI; remark: listed apart in the source
[20] = target: FcγRIIIa-176V extracellular domain, biotinylated (human) (UniProt P08637); assay: BLI; remark: listed apart in the source
[21] = target: FcγRIIa-131H extracellular domain, biotinylated (human) (UniProt P12318); assay: BLI; remark: listed apart in the source
[22] = target: FcγRIIa-131R extracellular domain, biotinylated (human); assay: BLI; remark: listed apart in the source
[23] = target: FcγRIIb extracellular domain, biotinylated (human) (UniProt P31994); assay: BLI; remark: listed apart in the source

FcγRIIIa-176F MFI / TNFα MFI [1]: 8 MFI ratio
FcγRIIIa-176F^High cells (%) [1]: 0.1%
FcγRIIIa-176F MFI / TNFα MFI [2]: 6.9 MFI ratio
FcγRIIIa-176F^High cells (%) [3]: 1.15%
FcγRIIIa-176F MFI / TNFα MFI [4]: 11.1 MFI ratio
FcγRIIIa-176F^High cells (%) [4]: 0.61%
FcγRIIIa-176F MFI / TNFα MFI [5]: 9.3 MFI ratio
FcγRIIIa-176F^High cells (%) [5]: 0.81%
FcγRIIIa-176F MFI / TNFα MFI [6]: 8.6 MFI ratio
FcγRIIIa-176F^High cells (%) [6]: 0.93%
FcγRIIIa-176F MFI / TNFα MFI [7]: 9.6 MFI ratio
FcγRIIIa-176F^High cells (%) [7]: 0.8%
FcγRIIIa-176F^High cells (%) [8]: 1.15%
FcγRIIIa-176F MFI / TNFα MFI [9]: 13.2 MFI ratio
FcγRIIIa-176F^High cells (%) [9]: 2.23%
FcγRIIIa-176F MFI / TNFα MFI [10]: 9.2 MFI ratio
FcγRIIIa-176F MFI / TNFα MFI [11]: 7.5 MFI ratio
FcγRIIIa-176F^High cells (%) [11]: 0.25%
Substance: FcγRIIIa-176F extracellular domain, biotinylated (from UniProt P08637 17-208) (receptor)

FcγRIIb MFI / TNFα MFI [12]: 12.9 MFI ratio
FcγRIIb^High cells (%) [13]: 7.39%
Substance: FcγRIIb extracellular domain, biotinylated (from UniProt P31994 43-217) (receptor)

Kd [14]: 770 nM
Kd [15]: 390 nM
Kd [16]: 390 nM
Kd [17]: 520 nM
Kd [18]: 580 nM
Kd [19]: 640 nM
Kd [20]: 430 nM
Kd [21]: 240 nM
Kd [22]: 330 nM
Kd [23]: 570 nM
Substance: trastuzumab IgG with WT Fc (antibody)
